Protein stability index data for 94 variants are collected here from the supplement of paper PMC10567573.

The chains are these.
B1: TMEM40 (parent)
chain: YGETDFHKQDGKAGLFSQEQYERN
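Further: lentivirally expressed fusions sorted by FACS into six bins by GFP to DsRed ratio, PSI derived from sequencing read proportions per bin multiplied by bin number.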

The variants in the series derive from B1. Kind of series: protein stability index of a GFP-peptide fusion (GPS, HEK-293T) (PSI 1-6); higher = more stable. Particulars: c terminus: a fixed tail appended.
For YGETDFHKQYGKAGLFSQEQYERN [D10Y], the protein stability index is 2.85.

YGETDFHKQDGKFGLFSQEQYERN [A13F]: the protein stability index is 3.83.

For YGETDFHKQDGKIGLFSQEQYERN [A13I], the protein stability index was 4.03.

Regarding YGETDFHKQDGKRGLFSQEQYERN [A13R], the protein stability index stood at 3.96.

Turning to YGETDFHKQDGKDGLFSQEQYERN [A13D], the protein stability index stood at 4.28.

As for YGETDFHKQDGKHGLFSQEQYERN [A13H], the protein stability index came out at 4.21.

In the case of YGETDFHKQDGKNGLFSQEQYERN [A13N], the protein stability index is 4.54.

Turning to YGETDFHKQDGKSGLFSQEQYERN [A13S], the protein stability index was 3.83.

Regarding YGETDFHKQDGKVGLFSQEQYERN [A13V], the protein stability index is 4.27.

YGETDFHKQDGKMGLFSQEQYERN [A13M]: the protein stability index stood at 3.65.

For YGETDFHKQDGKKGLFSQEQYERN [A13K], the protein stability index was 4.04.

Turning to YGETDFHKQDGKPGLFSQEQYERN [A13P], the protein stability index is 3.54.

Take YGETDFHKQDGKYGLFSQEQYERN [A13Y]: the protein stability index came out at 3.41.

Take YGETDFHKQDGKCGLFSQEQYERN [A13C]: the protein stability index stood at 3.28.

Take YGETDFHKQDGKGGLFSQEQYERN [A13G]: the protein stability index is 4.08.

For YGETDFHKQDGKWGLFSQEQYERN [A13W], the protein stability index amounted to 3.87.

Regarding YGETDFHKQDGKTGLFSQEQYERN [A13T], the protein stability index is 4.28.

Turning to YGETDFHKQDGKQGLFSQEQYERN [A13Q], the protein stability index was determined as 3.93.

In the case of YGETDFHKQDGKLGLFSQEQYERN [A13L], the protein stability index was 4.07.

Regarding YGETDFHKQDGKEGLFSQEQYERN [A13E], the protein stability index came out at 4.33.

Take YGETDFHKQDGKANLFSQEQYERN [G14N]: the protein stability index was 4.47.

Turning to YGETDFHKQDGKAHLFSQEQYERN [G14H], the protein stability index turned out to be 4.06.

For YGETDFHKQDGKAWLFSQEQYERN [G14W], the protein stability index is 2.72.

On to YGETDFHKQDGKAKLFSQEQYERN [G14K], for which the protein stability index was found to be 4.32.

YGETDFHKQDGKATLFSQEQYERN [G14T]: the protein stability index was 4.06.

In the case of YGETDFHKQDGKAALFSQEQYERN [G14A], the protein stability index was 4.02.

As to YGETDFHKQDGKAYLFSQEQYERN [G14Y], the protein stability index came to 3.74.

Consider YGETDFHKQDGKACLFSQEQYERN [G14C], for which the protein stability index turned out to be 4.18.

Regarding YGETDFHKQDGKAQLFSQEQYERN [G14Q], the protein stability index worked out at 4.29.

As for YGETDFHKQDGKAELFSQEQYERN [G14E], the protein stability index was determined as 4.63.

In the case of YGETDFHKQDGKADLFSQEQYERN [G14D], the protein stability index turned out to be 4.79.

As for YGETDFHKQDGKALLFSQEQYERN [G14L], the protein stability index was 3.86.

Turning to YGETDFHKQDGKAVLFSQEQYERN [G14V], the protein stability index is 4.09.

With YGETDFHKQDGKAMLFSQEQYERN [G14M], the protein stability index turned out to be 4.45.

Regarding YGETDFHKQDGKAPLFSQEQYERN [G14P], the protein stability index worked out at 4.34.

As to YGETDFHKQDGKASLFSQEQYERN [G14S], the protein stability index stood at 4.68.

As for YGETDFHKQDGKAILFSQEQYERN [G14I], the protein stability index is 3.93.

In the case of YGETDFHKQDGKARLFSQEQYERN [G14R], the protein stability index was 3.84.

For YGETDFHKQDGKAFLFSQEQYERN [G14F], the protein stability index amounted to 3.69.

Take YGETDFHKQDEKAGLFSQEQYERN [G11E]: the protein stability index came out at 4.68.

YGETDFHKQDTKAGLFSQEQYERN [G11T]: the protein stability index worked out at 3.68.

Consider YGETDFHKQDDKAGLFSQEQYERN [G11D], for which the protein stability index is 4.5.

With YGETDFHKQDNKAGLFSQEQYERN [G11N], the protein stability index was 4.32.

Turning to YGETDFHKQDRKAGLFSQEQYERN [G11R], the protein stability index was determined as 4.08.

Regarding YGETDFHKQDYKAGLFSQEQYERN [G11Y], the protein stability index turned out to be 3.75.

On to YGETDFHKQDIKAGLFSQEQYERN [G11I], for which the protein stability index came to 3.9.

As for YGETDFHKQDVKAGLFSQEQYERN [G11V], the protein stability index came to 4.21.

For the variant YGETDFHKQDKKAGLFSQEQYERN [G11K], the protein stability index was determined as 4.16.

Consider YGETDFHKQDHKAGLFSQEQYERN [G11H], for which the protein stability index is 4.16.

As for YGETDFHKQDWKAGLFSQEQYERN [G11W], the protein stability index was determined as 3.2.

Consider YGETDFHKQDAKAGLFSQEQYERN [G11A], for which the protein stability index amounted to 4.25.

Take YGETDFHKQDPKAGLFSQEQYERN [G11P]: the protein stability index stood at 3.46.

With YGETDFHKQDMKAGLFSQEQYERN [G11M], the protein stability index came to 4.58.

As to YGETDFHKQDFKAGLFSQEQYERN [G11F], the protein stability index was 3.86.

Take YGETDFHKQDQKAGLFSQEQYERN [G11Q]: the protein stability index is 4.04.

In the case of YGETDFHKQDSKAGLFSQEQYERN [G11S], the protein stability index was 4.55.

Consider YGETDFHKQDCKAGLFSQEQYERN [G11C], for which the protein stability index stood at 3.77.

Take YGETDFHKQDGKAGQFSQEQYERN [L15Q]: the protein stability index amounted to 4.51.

Take YGETDFHKQDGKAGAFSQEQYERN [L15A]: the protein stability index was 4.39.

Take YGETDFHKQDGKAGIFSQEQYERN [L15I]: the protein stability index came out at 4.08.

Regarding YGETDFHKQDGKAGRFSQEQYERN [L15R], the protein stability index turned out to be 4.43.

On to YGETDFHKQDGKAGKFSQEQYERN [L15K], for which the protein stability index amounted to 4.49.

As for YGETDFHKQDGKAGCFSQEQYERN [L15C], the protein stability index is 4.38.

Regarding YGETDFHKQDGKAGSFSQEQYERN [L15S], the protein stability index was determined as 5.04.

As to YGETDFHKQDGKAGDFSQEQYERN [L15D], the protein stability index is 5.02.

Turning to YGETDFHKQDGKAGHFSQEQYERN [L15H], the protein stability index is 4.02.

YGETDFHKQDGKAGMFSQEQYERN [L15M]: the protein stability index was found to be 4.27.

YGETDFHKQDGKAGPFSQEQYERN [L15P]: the protein stability index was 4.89.

Turning to YGETDFHKQDGKAGFFSQEQYERN [L15F], the protein stability index was 3.32.

Consider YGETDFHKQDGKAGEFSQEQYERN [L15E], for which the protein stability index came out at 4.66.

On to YGETDFHKQDGKAGNFSQEQYERN [L15N], for which the protein stability index amounted to 4.5.

Take YGETDFHKQDGKAGVFSQEQYERN [L15V]: the protein stability index is 4.18.

As for YGETDFHKQDGKAGWFSQEQYERN [L15W], the protein stability index amounted to 3.8.

As to YGETDFHKQDGKAGTFSQEQYERN [L15T], the protein stability index amounted to 4.55.

In the case of YGETDFHKQDGKAGGFSQEQYERN [L15G], the protein stability index came to 4.73.

YGETDFHKQDGFAGLFSQEQYERN [K12F]: the protein stability index turned out to be 4.21.

YGETDFHKQDGIAGLFSQEQYERN [K12I]: the protein stability index was determined as 3.93.

Regarding YGETDFHKQDGLAGLFSQEQYERN [K12L], the protein stability index came out at 3.66.

Take YGETDFHKQDGNAGLFSQEQYERN [K12N]: the protein stability index worked out at 4.78.

In the case of YGETDFHKQDGRAGLFSQEQYERN [K12R], the protein stability index is 4.1.

With YGETDFHKQDGAAGLFSQEQYERN [K12A], the protein stability index was 4.25.

YGETDFHKQDGDAGLFSQEQYERN [K12D]: the protein stability index worked out at 4.86.

With YGETDFHKQDGCAGLFSQEQYERN [K12C], the protein stability index is 4.35.

Consider YGETDFHKQDGHAGLFSQEQYERN [K12H], for which the protein stability index was 4.28.

Regarding YGETDFHKQDGTAGLFSQEQYERN [K12T], the protein stability index came to 4.5.

Turning to YGETDFHKQDGYAGLFSQEQYERN [K12Y], the protein stability index came out at 3.99.

Take YGETDFHKQDGPAGLFSQEQYERN [K12P]: the protein stability index stood at 4.38.

With YGETDFHKQDGGAGLFSQEQYERN [K12G], the protein stability index is 4.19.

In the case of YGETDFHKQDGQAGLFSQEQYERN [K12Q], the protein stability index amounted to 4.21.

For YGETDFHKQDGSAGLFSQEQYERN [K12S], the protein stability index is 4.86.

YGETDFHKQDGVAGLFSQEQYERN [K12V]: the protein stability index amounted to 4.49.

As to YGETDFHKQDGMAGLFSQEQYERN [K12M], the protein stability index turned out to be 4.14.

Regarding YGETDFHKQDGWAGLFSQEQYERN [K12W], the protein stability index came out at 3.21.

Consider YGETDFHKQDGEAGLFSQEQYERN [K12E], for which the protein stability index was found to be 4.82.
